Measurements taken from patent US20180155451A1 (published 2018).

Columns and labels:
[1] = molecular target: T1, FcγRIIIa extracellular domain with C-terminal His tag (human, UniProt P08637 17-208); experiment: SPR; He/Con_3a divided by He/Con_2b (binding to FcγRIIb is the reference)
T1 construct: extracellular domain; also called FcgRIIIa; 3a; not shown: His tag at the C terminus
Protocol: (§1) Analysis of interaction between objective antibody and the FcγR was carried out using Biacore T100 (GE Healthcare). HBS-EP+ (GE Healthcare) was used as the running buffer, and the measurement temperature was set to 25° C. Chips produced by immobilizing the antigen peptide by the amine coupling method to a Series S Sencor Chip CM5 (GE Healthcare), or alternatively, chips produced by allowing preliminarily biotinylated antigen peptides to interact with and immobilize onto a Series S Sensor Chip SA (certified) (GE Healthcare) were used. Antibodies of interest were captured onto an antigen peptide-immobilized chip, and allowed to interact to each FcγR diluted with running buffer. To regenerate and repeatedly use the chip, the antibodies captured on the chip were washed off by reacting 10 mM glycine-HCl, pH 1.5.
(§2) The FcγR-binding activity of each antibody was assessed primarily using as an indicator the FcγR-binding activity and dissociation constant for FcγR.

[2] = molecular target: T2, FcγRIIb extracellular domain with C-terminal His tag (human, UniProt P31994 43-217); experiment: SPR (Biacore), antibody captured on antigen peptide chip, FcγR as analyte; relative binding amount
T2 construct: extracellular domain; also called FcgRIIb; 2b; not shown: His tag at the C terminus
T2 sequence (looked up): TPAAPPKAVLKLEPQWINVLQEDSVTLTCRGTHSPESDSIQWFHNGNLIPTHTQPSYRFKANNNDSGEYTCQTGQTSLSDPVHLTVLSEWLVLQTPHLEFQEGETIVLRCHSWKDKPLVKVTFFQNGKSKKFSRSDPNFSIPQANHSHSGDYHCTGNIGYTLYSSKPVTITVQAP
Protocol: as §1, §2

[3] = molecular target: T1, FcγRIIIa extracellular domain with …; experiment: as above
Protocol: as §1, §2

T1 sequence (P08637 17-208): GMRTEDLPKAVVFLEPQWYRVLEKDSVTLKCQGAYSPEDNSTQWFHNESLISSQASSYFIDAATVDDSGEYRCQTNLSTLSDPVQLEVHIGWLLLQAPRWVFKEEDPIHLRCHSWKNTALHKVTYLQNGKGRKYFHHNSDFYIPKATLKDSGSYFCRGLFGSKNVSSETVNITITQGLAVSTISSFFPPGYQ

B1: GpH7-A5/GpH7-B3 variant P238_16H/GpL16-k0 (antibody, human IgG1, kappa)
heavy 1: not shown
heavy 2: not shown
light: DIVMTQSPLSLPVTPGEPASISCQASESLVHSNRNTYLHWYLQKPGQSPQLLIYKVSNRFSGVPDRFSGSGSGTDFTLKISRVEAEDVGVYYCSQNTHVPPTFGQGTKVEIERTVAAPSVFIFPPSDEQLKSGTASVVCLLNNFYPREAKVQWKVDNALQSGNSQESVTEQDSKDSTYSLSSTLTLSKADYEKHKVYACEVTHQGLSSPVTKSFNRGEC
notes: Heterodimerized anti-glypican-3 IgG1; the substitution stands in the GpH7-B3 chain only; also called He Ab
He_3a/2b (IIIa/IIb) [1]: 0.27 ratio | He/Con_2b [2]: 115 % of GpH7-A5/GpH7-B3/GpL16-k0 (=100) | He/Con_3a [3]: 30.7 % of GpH7-A5/GpH7-B3/GpL16-k0 (=100)

B2: GpH7-A5/GpH7-B3 variant P238_18N/GpL16-k0 (antibody, human IgG1, kappa)
heavy 1: not shown
heavy 2: not shown
light: DIVMTQSPLSLPVTPGEPASISCQASESLVHSNRNTYLHWYLQKPGQSPQLLIYKVSNRFSGVPDRFSGSGSGTDFTLKISRVEAEDVGVYYCSQNTHVPPTFGQGTKVEIERTVAAPSVFIFPPSDEQLKSGTASVVCLLNNFYPREAKVQWKVDNALQSGNSQESVTEQDSKDSTYSLSSTLTLSKADYEKHKVYACEVTHQGLSSPVTKSFNRGEC
notes: as for B1
He_3a/2b (IIIa/IIb) [1]: 0.55 ratio | He/Con_2b [2]: 73.2 % of GpH7-A5/GpH7-B3/GpL16-k0 (=100) | He/Con_3a [3]: 40.4 % of GpH7-A5/GpH7-B3/GpL16-k0 (=100)

B3: GpH7-A5/GpH7-B3 variant P238_19Q/GpL16-k0 (antibody, human IgG1, kappa)
heavy 1: not shown
heavy 2: not shown
light: DIVMTQSPLSLPVTPGEPASISCQASESLVHSNRNTYLHWYLQKPGQSPQLLIYKVSNRFSGVPDRFSGSGSGTDFTLKISRVEAEDVGVYYCSQNTHVPPTFGQGTKVEIERTVAAPSVFIFPPSDEQLKSGTASVVCLLNNFYPREAKVQWKVDNALQSGNSQESVTEQDSKDSTYSLSSTLTLSKADYEKHKVYACEVTHQGLSSPVTKSFNRGEC
notes: as for B1
He_3a/2b (IIIa/IIb) [1]: 0.51 ratio | He/Con_2b [2]: 110 % of GpH7-A5/GpH7-B3/GpL16-k0 (=100) | He/Con_3a [3]: 55.8 % of GpH7-A5/GpH7-B3/GpL16-k0 (=100)

B4: GpH7-A5/GpH7-B3 variant P238_20W/GpL16-k0 (antibody, human IgG1, kappa)
heavy 1: not shown
heavy 2: not shown
light: DIVMTQSPLSLPVTPGEPASISCQASESLVHSNRNTYLHWYLQKPGQSPQLLIYKVSNRFSGVPDRFSGSGSGTDFTLKISRVEAEDVGVYYCSQNTHVPPTFGQGTKVEIERTVAAPSVFIFPPSDEQLKSGTASVVCLLNNFYPREAKVQWKVDNALQSGNSQESVTEQDSKDSTYSLSSTLTLSKADYEKHKVYACEVTHQGLSSPVTKSFNRGEC
notes: as for B1
He_3a/2b (IIIa/IIb) [1]: 0.4 ratio | He/Con_2b [2]: 123 % of GpH7-A5/GpH7-B3/GpL16-k0 (=100) | He/Con_3a [3]: 49.7 % of GpH7-A5/GpH7-B3/GpL16-k0 (=100)

B5: GpH7-A5/GpH7-B3 variant S239_03V/GpL16-k0 (antibody, human IgG1, kappa)
heavy 1: not shown
heavy 2: not shown
light: DIVMTQSPLSLPVTPGEPASISCQASESLVHSNRNTYLHWYLQKPGQSPQLLIYKVSNRFSGVPDRFSGSGSGTDFTLKISRVEAEDVGVYYCSQNTHVPPTFGQGTKVEIERTVAAPSVFIFPPSDEQLKSGTASVVCLLNNFYPREAKVQWKVDNALQSGNSQESVTEQDSKDSTYSLSSTLTLSKADYEKHKVYACEVTHQGLSSPVTKSFNRGEC
notes: as for B1
He_3a/2b (IIIa/IIb) [1]: 0.71 ratio | He/Con_2b [2]: 108 % of GpH7-A5/GpH7-B3/GpL16-k0 (=100) | He/Con_3a [3]: 76.6 % of GpH7-A5/GpH7-B3/GpL16-k0 (=100)

B6: GpH7-A5/GpH7-B3 variant S239_04F/GpL16-k0 (antibody, human IgG1, kappa)
heavy 1: not shown
heavy 2: not shown
light: DIVMTQSPLSLPVTPGEPASISCQASESLVHSNRNTYLHWYLQKPGQSPQLLIYKVSNRFSGVPDRFSGSGSGTDFTLKISRVEAEDVGVYYCSQNTHVPPTFGQGTKVEIERTVAAPSVFIFPPSDEQLKSGTASVVCLLNNFYPREAKVQWKVDNALQSGNSQESVTEQDSKDSTYSLSSTLTLSKADYEKHKVYACEVTHQGLSSPVTKSFNRGEC
notes: as for B1
He_3a/2b (IIIa/IIb) [1]: 0.57 ratio | He/Con_2b [2]: 44.1 % of GpH7-A5/GpH7-B3/GpL16-k0 (=100) | He/Con_3a [3]: 25.3 % of GpH7-A5/GpH7-B3/GpL16-k0 (=100)

B7: GpH7-A5/GpH7-B3 variant S239_05P/GpL16-k0 (antibody, human IgG1, kappa)
heavy 1: not shown
heavy 2: not shown
light: DIVMTQSPLSLPVTPGEPASISCQASESLVHSNRNTYLHWYLQKPGQSPQLLIYKVSNRFSGVPDRFSGSGSGTDFTLKISRVEAEDVGVYYCSQNTHVPPTFGQGTKVEIERTVAAPSVFIFPPSDEQLKSGTASVVCLLNNFYPREAKVQWKVDNALQSGNSQESVTEQDSKDSTYSLSSTLTLSKADYEKHKVYACEVTHQGLSSPVTKSFNRGEC
notes: as for B1
He_3a/2b (IIIa/IIb) [1]: 0.15 ratio | He/Con_2b [2]: 102 % of GpH7-A5/GpH7-B3/GpL16-k0 (=100) | He/Con_3a [3]: 14.9 % of GpH7-A5/GpH7-B3/GpL16-k0 (=100)

B8: GpH7-A5/GpH7-B3 variant S239_06M/GpL16-k0 (antibody, human IgG1, kappa)
heavy 1: not shown
heavy 2: not shown
light: DIVMTQSPLSLPVTPGEPASISCQASESLVHSNRNTYLHWYLQKPGQSPQLLIYKVSNRFSGVPDRFSGSGSGTDFTLKISRVEAEDVGVYYCSQNTHVPPTFGQGTKVEIERTVAAPSVFIFPPSDEQLKSGTASVVCLLNNFYPREAKVQWKVDNALQSGNSQESVTEQDSKDSTYSLSSTLTLSKADYEKHKVYACEVTHQGLSSPVTKSFNRGEC
notes: as for B1
He_3a/2b (IIIa/IIb) [1]: 0.78 ratio | He/Con_2b [2]: 101 % of GpH7-A5/GpH7-B3/GpL16-k0 (=100) | He/Con_3a [3]: 78.2 % of GpH7-A5/GpH7-B3/GpL16-k0 (=100)

B9: GpH7-A5/GpH7-B3 variant S239_07I/GpL16-k0 (antibody, human IgG1, kappa)
heavy 1: not shown
heavy 2: not shown
light: DIVMTQSPLSLPVTPGEPASISCQASESLVHSNRNTYLHWYLQKPGQSPQLLIYKVSNRFSGVPDRFSGSGSGTDFTLKISRVEAEDVGVYYCSQNTHVPPTFGQGTKVEIERTVAAPSVFIFPPSDEQLKSGTASVVCLLNNFYPREAKVQWKVDNALQSGNSQESVTEQDSKDSTYSLSSTLTLSKADYEKHKVYACEVTHQGLSSPVTKSFNRGEC
notes: as for B1
He_3a/2b (IIIa/IIb) [1]: 0.74 ratio | He/Con_2b [2]: 107 % of GpH7-A5/GpH7-B3/GpL16-k0 (=100) | He/Con_3a [3]: 79.3 % of GpH7-A5/GpH7-B3/GpL16-k0 (=100)

B10: GpH7-A5/GpH7-B3 variant S239_08L/GpL16-k0 (antibody, human IgG1, kappa)
heavy 1: not shown
heavy 2: not shown
light: DIVMTQSPLSLPVTPGEPASISCQASESLVHSNRNTYLHWYLQKPGQSPQLLIYKVSNRFSGVPDRFSGSGSGTDFTLKISRVEAEDVGVYYCSQNTHVPPTFGQGTKVEIERTVAAPSVFIFPPSDEQLKSGTASVVCLLNNFYPREAKVQWKVDNALQSGNSQESVTEQDSKDSTYSLSSTLTLSKADYEKHKVYACEVTHQGLSSPVTKSFNRGEC
notes: as for B1
He_3a/2b (IIIa/IIb) [1]: 0.68 ratio | He/Con_2b [2]: 140 % of GpH7-A5/GpH7-B3/GpL16-k0 (=100) | He/Con_3a [3]: 95.3 % of GpH7-A5/GpH7-B3/GpL16-k0 (=100)

B11: GpH7-A5/GpH7-B3 variant S239_11K/GpL16-k0 (antibody, human IgG1, kappa)
heavy 1: not shown
heavy 2: not shown
light: DIVMTQSPLSLPVTPGEPASISCQASESLVHSNRNTYLHWYLQKPGQSPQLLIYKVSNRFSGVPDRFSGSGSGTDFTLKISRVEAEDVGVYYCSQNTHVPPTFGQGTKVEIERTVAAPSVFIFPPSDEQLKSGTASVVCLLNNFYPREAKVQWKVDNALQSGNSQESVTEQDSKDSTYSLSSTLTLSKADYEKHKVYACEVTHQGLSSPVTKSFNRGEC
notes: as for B1
He_3a/2b (IIIa/IIb) [1]: 0.48 ratio | He/Con_2b [2]: 24.7 % of GpH7-A5/GpH7-B3/GpL16-k0 (=100) | He/Con_3a [3]: 11.9 % of GpH7-A5/GpH7-B3/GpL16-k0 (=100)

B12: GpH7-A5/GpH7-B3 variant S239_12R/GpL16-k0 (antibody, human IgG1, kappa)
heavy 1: not shown
heavy 2: not shown
light: DIVMTQSPLSLPVTPGEPASISCQASESLVHSNRNTYLHWYLQKPGQSPQLLIYKVSNRFSGVPDRFSGSGSGTDFTLKISRVEAEDVGVYYCSQNTHVPPTFGQGTKVEIERTVAAPSVFIFPPSDEQLKSGTASVVCLLNNFYPREAKVQWKVDNALQSGNSQESVTEQDSKDSTYSLSSTLTLSKADYEKHKVYACEVTHQGLSSPVTKSFNRGEC
notes: as for B1
He_3a/2b (IIIa/IIb) [1]: 0.44 ratio | He/Con_2b [2]: 39.1 % of GpH7-A5/GpH7-B3/GpL16-k0 (=100) | He/Con_3a [3]: 17 % of GpH7-A5/GpH7-B3/GpL16-k0 (=100)

B13: GpH7-A5/GpH7-B3 variant S239_15Y/GpL16-k0 (antibody, human IgG1, kappa)
heavy 1: not shown
heavy 2: not shown
light: DIVMTQSPLSLPVTPGEPASISCQASESLVHSNRNTYLHWYLQKPGQSPQLLIYKVSNRFSGVPDRFSGSGSGTDFTLKISRVEAEDVGVYYCSQNTHVPPTFGQGTKVEIERTVAAPSVFIFPPSDEQLKSGTASVVCLLNNFYPREAKVQWKVDNALQSGNSQESVTEQDSKDSTYSLSSTLTLSKADYEKHKVYACEVTHQGLSSPVTKSFNRGEC
notes: as for B1
He_3a/2b (IIIa/IIb) [1]: 0.73 ratio | He/Con_2b [2]: 34.9 % of GpH7-A5/GpH7-B3/GpL16-k0 (=100) | He/Con_3a [3]: 25.6 % of GpH7-A5/GpH7-B3/GpL16-k0 (=100)

B14: GpH7-A5/GpH7-B3 variant S239_16H/GpL16-k0 (antibody, human IgG1, kappa)
heavy 1: not shown
heavy 2: not shown
light: DIVMTQSPLSLPVTPGEPASISCQASESLVHSNRNTYLHWYLQKPGQSPQLLIYKVSNRFSGVPDRFSGSGSGTDFTLKISRVEAEDVGVYYCSQNTHVPPTFGQGTKVEIERTVAAPSVFIFPPSDEQLKSGTASVVCLLNNFYPREAKVQWKVDNALQSGNSQESVTEQDSKDSTYSLSSTLTLSKADYEKHKVYACEVTHQGLSSPVTKSFNRGEC
notes: as for B1
He_3a/2b (IIIa/IIb) [1]: 0.59 ratio | He/Con_2b [2]: 49.4 % of GpH7-A5/GpH7-B3/GpL16-k0 (=100) | He/Con_3a [3]: 29.2 % of GpH7-A5/GpH7-B3/GpL16-k0 (=100)
